This note sets out measurements from US20210087244A1 (UNIVERSITY OF BRITISH COLUMBIA, published 2021).

Holding throughout (experiment): SPR direct binding (MASS-1), hybridoma supernatant over immobilized antigen
Assay [1] concerns the target T1, A-beta42 Oligomer (human).
T1 construct: also called A β 42 Oligomer; A-beta 1-42 oligomers
The procedure: (§1) All SPR measurements were performed using a Molecular Affinity Screening System (MASS-1) (Sierra Sensors GmbH, Hamburg, Germany), an analytical biosensor that employs high intensity laser light and high speed optical scanning to monitor binding interactions in real time. The primary screening of tissue culture supernatants was performed using an SPR direct binding assay, whereby BSA-conjugated peptides, A-beta42 Monomer and A-beta42 Oligomer are covalently immobilized on individual flow cells of a High Amine Capacity (HAC) sensorchip (Sierra Sensors GmbH, Hamburg, Germany) and antibodies flowed over the surface. Protein G purified mAbs were analyzed in a secondary screen using an SPR indirect (capture) binding assay, whereby the antibodies were captured on a protein A-derivatized sensorchip (XanTec Bioanalytics GmbH, Duesseldorf, Germany) and A-beta40 Monomer, A-beta42 Oligomer, soluble brain extracts and cerebrospinal fluid flowed over the surface. The specificity of the antibodies was verified in an SPR direct binding assay by covalently immobilizing A-beta42 Monomer and A-beta42 Oligomer on individual flow cells of a HAC sensorchip and flowing purified mAbs.
(§2) Clones were retested for their ability to bind cyclic peptide, linear peptide, A-beta 1-42 monomer and A-beta 1-42 oligomers prepared as described above. Binding assays were performed using SPR as described above (Direct binding assays).

For assay [2], the target named is T2, cyclo(CGHHQKG)-conjugated-BSA (SEQ ID NO: 2) (bovine, UniProt P02769 25-607, head-to-tail cyclized (amide bond between N- and C-terminus); conjugated to SMCC-activated BSA).
T2 construct: also called Cyclic-Peptide; cyclic peptide-BSA
The procedure:
as §1, §2

Assay [3] concerns the target T3, linear CGHHQKG-conjugated-BSA (SEQ ID NO: 2) (bovine, UniProt P02769 25-607, conjugated to BSA).
T3 construct: also called Linear-Peptide; linear peptide-BSA
On the procedure: as §1, §2

T2 sequence (P02769 25-607 limits assumed): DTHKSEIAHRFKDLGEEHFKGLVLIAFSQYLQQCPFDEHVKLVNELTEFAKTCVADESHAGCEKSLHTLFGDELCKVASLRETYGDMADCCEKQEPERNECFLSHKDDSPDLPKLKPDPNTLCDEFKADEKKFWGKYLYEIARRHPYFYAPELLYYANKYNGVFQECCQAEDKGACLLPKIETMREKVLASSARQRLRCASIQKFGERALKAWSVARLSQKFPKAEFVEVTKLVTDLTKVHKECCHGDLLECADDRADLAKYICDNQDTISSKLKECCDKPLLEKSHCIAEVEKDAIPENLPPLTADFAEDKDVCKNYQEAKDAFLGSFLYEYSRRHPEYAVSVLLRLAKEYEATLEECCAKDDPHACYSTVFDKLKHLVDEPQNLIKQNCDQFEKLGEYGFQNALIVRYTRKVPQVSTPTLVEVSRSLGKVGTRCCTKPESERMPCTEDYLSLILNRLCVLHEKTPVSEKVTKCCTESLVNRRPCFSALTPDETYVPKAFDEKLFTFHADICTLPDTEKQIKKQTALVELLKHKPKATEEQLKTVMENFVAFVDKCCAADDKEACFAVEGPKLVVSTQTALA
T3 sequence (P02769 25-607 limits assumed): as above
T1 sequence (peptide, as listed by the source): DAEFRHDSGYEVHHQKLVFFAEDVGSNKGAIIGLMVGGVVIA

B1: 301-12G11 (17) (antibody, V domains shown)
VH: QVQLQQPGAELVKPGASVKMSCKASGYSFTSYWINWVKQRPGQGLEWIGDVHPGRGVSTYNAKFKSKATLTLDTSSSTAYMQLSSLTSEDSAVYYCSRSHGNTYWFFDVWGAGTTVTVSS
VL: DVLMTQTPLSLPVSLGDQASISCRSSQSIVHSNGNTYLEWYLQKPGQSPKLLIYKVSNRFSGVPDRFSGSGSGTDFTLKISRVEAEDLGVYYCFQGSHVPFTFGSGTKLEIKR
notes: they begin with a leader (MGWSC.../MKLPV...) and end with a few constant-region residues
For B1, the “response units (RU)” value in assay [1] was 66.8 RU; in assay [2], 698 RU; in assay [3] it was 1150 RU.
